Measurements taken from the DeepSol protein solubility set.

Test: soluble on expression in E. coli; label from the status in PepcDB or PDB records

Row | Sequence | soluble on expression in E. coli
1 | MSLITDGIMHKVREVYQLLRKEPGIIVGVSNRHVHLSREDLETLFGEGYELTPVKELRQPGQYAAKETVTIVGPKGAIENVRVLGPVRKETQVEISRTDAFRLGVRPPVRDSGDLEGTPGIVIIGPNGILVKEKGVIIAKRHIHMHPKDAEYYGVKDKDIVKVIVESGDRRLIFDDVLIRVREDFALEFHVDTDEANAAMLNTGDLVYIVEFEGGSHHHHHH | soluble
2 | MSLIVTAYTQEGIVIGADSCITTNFTQEGKELYKHSHCGNKLFLLNKKIGISTCGDAIINGILLSSLIDQYIWSKKEENITLLQVEIDLKNIVNNQAKGKEYYVIFHICGYENGKRYVSKFDNNDKESHIKDVSERDGCIYDGQVDIVDLFSQDVAYRGTDGLYYDINIERCRYNELSLQETIEYVYFLISTTIQHMRFTYKKDNVGFPIDILVIMPNESLWLQKKELHIPGNY | not soluble
3 | MSLKARPTIAEVARRAGVSPATVSRVLNGTARVSPEKVRAVLQAVEELGYAPSPLAQGLATGRSYAVGILLSDFASPFFGPILEALTLELEATPYRPIAVPGHWSLVRELEALEFLKAHRVEALVLLGTALDGEALGELGIPVLAFGQRVEGPKAWSLCLDNQQAAYEATRYLIDRGHTRIVHISSHRGGMDVRDRLLGYRKAMREAGLEARVVYGDLEEEGGYRAAAEAFRRYPDTTAIFAANDQTAFGARLYLYEQGLRVPEDVSLVGFDDIALSAYQIPPLTTVRQPIQDIGIALGRALRAVLAGEVPTLPRLELRLVERASVREVREGHHHHHH | soluble
4 | MSLKDKFGREIRSLRISITNKCNLQCFYCHREGHDSNNDRYMTPEEIGIIAKTSTKFGVKKIKISGGEPLLRKDVCEIIENIKDERIKDISLTTNGILLENLAEKLKDAGLNRVNVSLDTLNPELYKKITKFGDVERVINGIKKAIDVSLTPLKVNFLAMSINIKDLPDIMEFCRDIGAILQIIEFIPLKEELKGYYYNISPIENEIKEKADKVITRNFMQNRKKYIVDGLEIEFVRPMDNSEFCMHCTRIRLTYDGYLKPCLLRDDNLVDVLTPLRKGENLEPYFIECINRREPYFKIKEGHHHHHH | soluble
5 | MSLKEGKEFEYLFWVGSMGSYDNRSQKIAISFAKLLNHAGVSFAILGNKEKNSGDTPRRLGNEFLFQELAEKNISEFEKNDVKKIVTIDPHAYNLFKNEYPDFGFEGEVYHHTEVLAELVKNGKLRPQHPLHETITFHDSCYLGRYNEVYDPPREILKAIPGVQLVEMERSRETGMCCGAGGGLMWMEEETGNRINVARTEQALAVNPSVISSGCPYCLTMLGDGTKAKEAEDQVKTYDVVELLAQSVLGADLKMGEKQEGHHHHHH | not soluble
6 | MSLKEYTRPLEQGIDSDKNIFSVLEERVERTPDDNLVEYKNAQGEWAAFTAAEFKNKVVALAKGLIARGVMPGDSVSIIAHTCWQWTALDVAIMSIGALTVPVYETNSPAQVKMIFNDANVKMAFAEDDFQRDKIESVRDQCPDLGDVYVIGLGAIDTIIEYGRAVSDAEFLEREQAVKGSDLATIVYTSGSTGTPKGVELTHANFVFITYSGVNSMPDIAMKPNRRLLLFLPLAHVFARYMQFFCFAGNVSLGLSSNLKTILADFKAFKPTFILAVPRIFEKIYNAASQKAGAGFKGRVFADATQTACDWSHAQQSGGSIPLALNAKHALYNKLVYSSIMEVFGGHVEYAVSGGAPLDSSIAHFFNGVGLSLLEGYGMTETCAPSSVNPTEGYKIGTIGLPLQGVTMGVDEEGELCIKSPAVCAGYHNNPDVTKQQIVDGWLHTGDLGSIDDDGFVSIVGRKKDLIITAGGKNVSPCEMEASIMTSPVVSQCVMIGDRKPFIAAIISLDLAETNLWLESKGAEQVADLDEASKNPIVRAEVERAVNKANELASRAESIRKFEIVPDEFTEENGLVTPSMKARRQAVVEHYRTLIDKVIYVPRKPAAHAEEGHHHHHH | soluble
7 | MSLKIADIQVRTEHFPLTRPYRIAFRSIEEIDNLIVEIRTADGLLGLGAASPERHVTGETLEACHAALDHDRLGWLMGRDIRTLPRLCRELAERLPAAPAARAALDMALHDLVAQCLGLPLVEILGRAHDSLPTSVTIGIKPVEETLAEAREHLALGFRVLKVKLCGDEEQDFERLRRLHETLAGRAVVRVDPNQSYDRDGLLRLDRLVQELGIEFIEQPFPAGRTDWLRALPKAIRRRIAADESLLGPADAFALAAPPAACGIFNIKLMKCGGLAPARRIATIAETAGIDLMWGCMDESRISIAAALHAALACPATRYLDLDGSFDLARDVAEGGFILEDGRLRVTERPGLGLVYPDEGHHHHHH | soluble
8 | MSLKIAIVGGPTAVGKTDIMIEVCEEIGAEIISMDSRQIYRYMDIGTAKPTPEQRKRVLHHMIDIIDPDEYYNAFMYRKDSLRAMEDVLRRGKIPVYVGGTGLYADALVRGIFEGVPADENIRKELRELERREPGILRKMLEELDPEAATRIHPNDLKRTIRALEVYMKTGRRISELQKEAKGDDRFFIIVLTRERYELYERINKRVDKMIEMGLVDEVKRLLGMGYSKDLNSMKTIGYKEVIDYLEGKYDFDKMVHLIKRNTRHFARRQIIWFKRYKEAVWYNLTFEDVGEVKEKLKKLIVENFSVEGHHHHHH | soluble
9 | MSLKIGFFIMNIGSAGGTERVSINVANALAKQGYDVSFISIGGNKPFFQVDEKINIYAMNKLPYSLKKDYFSITKKLRELVKELQLDTLIVVDGAIMLFSALALVNLNIKHILWEHYSFNFTGNRLVRTLGKYLAVTTCDKIVTLTEAEKTLWQEKFKTNNIISIANPNTLLPKNKLAKLENKTILSVGHLFSYKGFDYLLKVWQVLAKKYPDWNLKIVGSGEEEENLKNLAKALDIEDSVNFIPRTNDVSFYYESSSIYCLPSQTEGLPLVVIEAMAFGLPIVAFNCSPGVKQLVEHKENGFLCEQNNIEEMVKGLDLLINNPELYLQMSDKSRLMSEDYGIEKIIEEWKGILEGHHHHHH | soluble
10 | MSLKIKDIKVIFTEPDNIRLIIVKILTDQDGLYGVGCATFTQRPNPVKYAIEDYLKPFLIGKEVSNIEDIWQSSYVSSYWRNGPVLNNALSGVDQALWDIKGKMANMPLYDLFGGKTREAAAVYVHSSGDSNEEVGDKMQAFIEQGFHHIRVQVSTPGYSTYGNKSAKAGDKTLNNNDPKLGPIPVTKRVKDYSDGKLYAHPGGVFEPKPYLRSALSLFEYIRDRFGYGIEILHDVHERIPPILGVWFAKEVEKYQLFFLEDLFSPEDNEYFSMVRAQSSTPIAMGELYSSPHEIIPMIKNRLIDFIRIHISDIGGLTPAKKIAAMGEIFGVRTAWHGPGDTSPIGHAANLALDLSCYNFGIQEYSIFGENTKEVFPGCPIVKKGMMWSNDKPGLGIDIDEKLAKKFPFKEREYGGAWDTVRRADGSMVKEGHHHHHH | not soluble
11 | MSLKILICSDTHLGAGEKSHCLKDDCYLAFEEILQQANQEDVDLILHSGDFFDDQNPSKYCLTKTMELMRKYLMGKPKNSFDVAYTYEHNQEDNGFSMNQGIKYPMYVIHGNHDIPSGIEHVAGLDILQTAGLVNFIGKAEDISEIDNKTDQTILHLSPILLQKGTTRIALYGMSYKKNEEMNRLWASSQVQIDEPDGDVFKILLIHQDRILRNTLTTFPEELLKDRFNLIVFGHEHSSQVEEGTDVQIIQTGSSFPLSICEFEKAEKFIGLAHINGMKINMNKIALRNVREVFYEVVQMSQMIEGSANLEMVEHYIREEVQNFFDHVNTHSKTMLPLARIIIEYKSLGCIPNLRKMAFEFEKNIVNKGDCIKLKKKIQKREGHHHHHH | soluble
12 | MSLKILIGEFAVGTDIEKSLIPEGAAMLKTLAESFVRVGHEVCYPSAGTEIGSGTALKSTADSFVQVIEREAKNCDAGLLIAPDGMLPELNRILAENTANLGCSPEAAARCADKLRCTEILKTAGINAPEIVREAEEGKKYVIKPRFGCGAEATYLVSGFENTGEFIASEYIEGEHLSVSLIAGNKPLPLTVNRQFIEFNEKKDGINPENIEVSGIKYNGSLTPYETPRRGELYETAVSAVKYLGCFGYVGVDIVLSEVPYVVDVNPRPTASIFGISRVMREEIGELLLTNRFGTLPDSVRVEGEYHFSKDMLGELFGKNEGHHHHHH | soluble
13 | MSLKILLLVAISCLFVACSNDKEKQQNDVNLSTEASINQSDDMNFKLNLIDGGSISVKKENAVLNFNDEDKVTLFVFFTTWCTPCIAEIPHLNKLQEKYNNDFNIVGVLLEDKSNDEIQKFIEQHKISYKVANGENNYLLAKALGGVNGIPTMFLYNKHSKLINQYLGLIPEEMLEIDIQKAILEGGSHHHHHH | soluble
14 | MSLKINRIVNEGFMKTMLAAYLLGNSTVDLREVAVPTPGINQVLIKMKSSGICGSDVHYIYHQHRATAAAPDKPLYQGFINGHEPCGQIVAMGQGCRHFKEGDRVLVYHISGCGFCPNCRRGFPISCTGKGKAAYGWQRDGGHAEYLLAEEKDLILLPDALSYEDGAFISCGVGTAYEGILRGEVSGSDNVLVVGLGPVGMMAMMLAKGRGAKRIIGVDMLPERLAMAKQLGGMDHGYLATTEGLPQIIAELTHGGADVALDCSGNAAGRLLALQSTADWGRVVYIGETGKVEFEVSADLMHHQRRIIGSWVTSLFHMEKCAHDLTDWKLWPRNAITHRFSLEQAGDAYVLMASGKCGKVVINFPDEGHHHHHH | not soluble
15 | MSLKIRSLHTDALKKLAVKCEDLFMAGQKDQLRFGVDSWSDFRLTSDKPCCEAGDAVYYTASYAKDPLNNYAVKICKSKAKESQQYYHSLAVRQSLAVHFNIQQDCGHFLAEVPNRLLPWEDPDDPEKDEDDMEETEEDAKGETDGKNPKPCSEAASSQKENQGVMSKKQRSHVVVITREVPCLTVADFVRDSLAQHGKSPDLYERQVCLLLLQLCSGLEHLKPYHVTHCDLRLENLLLVHYQPGGTAQGFGPAEPSPTSSYPTRLIVSNFSQAKQKSHLVDPEILRDQSRLAPEIITATQYKKCDEFQTGILIYEMLHLPNPFDENPELKEREYTRADLPRIPFRSPYSRGLQQLASCLLNPNPSERILISDAKGILQCLLWGPREDLFQTFTACPSLVQRNTLLQNWLDIKRTLLMIKFAEKSLDREGGISLEDWLCAQYLAFAEGHHHHHH | not soluble
16 | MSLKISEVATPNFLLDLDQLEKNIDKIQQICTNNNKQLWPMLKTHKSTYIARLQKNAGASGFLVGTLDEGEALIKAGFEDIMLAYPYMGEVNINRIVTMASKINLICATDNIECAKAYSEAFSKSKIECKLLIIVDCGLHRFGVEPEKVVELATEISKLENIKIVGISSHPGQVYGCSSPEGVPDVCVQEDSSMEKAYKALTDNGFNIEIVASGSTPTVESEAACKTITAVRPGNYVYYDAIQIGLGCATEDMCALTVVCTVISKNSSGYYLIDCGSKCLGLDKGAHGNSSIVGYGRVCGHPELTIDSLSEEVGKIKVNGETDIKIGDRIRIIPNHSCSTANLTSNLLGFRGDTIEKVIEVDIRENSEGHHHHHH | soluble
17 | MSLKISKLKKNVVLKNGTIIDPFNNYEKKGDIHIENGKIKAVGKIPTPKSSEIIDCKNLNITHGFFDLHVHFREPGGEDKEDLNSGSLAALAGGFTGVCTMPNTNPPIDSPESIRYIIDRSEECPIYIYPIGSITKSQEGKELTEMGAMLSQGAVAFSDDGLPISDAGVMYNALDYSSMFDVPIINHAEDECLKQDSVMHEGEVSTHLGLPGSPDITESNMVFRDLELSIRAGARIHIPHVSSEKSVNHIKTMKKKSDRITAEVSPHHIFFCDEDLYSFDTNLKVAPPIRTKNDRKALIDALKNGIIDCIATDHAPHTIEEKEGTFDIAPFGMIGLESCFGAVNKVLTKDKKISHLELIKLLTVNPRKIMKLNQDLFKEGTNAEIAIYDPNIEWKFSLENIYSKSNNSPLFKEGHHHHHH | not soluble
18 | MSLKITKLEKKKRLYLMELDNGDKCYITEDTIVRFMLSRDKVISEEELKEIQDFAQFSYGKNLALYHLSFKARTEKEVREYLKKYDIDKNIVSQVIANLKEDKWINDGQYAYAIINTNQLSGDKGPYVLTQKLAQKGISKSTIEENLKEFDFSEVAQRVANKLLKKYEGKLPARALQDKIIQNLTNKGFSYSDAKIAFDDLDSQVDQETTQELIFKELDKQYTKYARKYEGYELKQRLTQVLARKGYDFSDIASALREYLEGHHHHHH | soluble
